Data reported in FireProtDB (doi:10.1021/bi00444a012).

B1: Subtilisin BPN', P00782 (parent)
chain: MRGKKVWISLLFALALIFTMAFGSTSSAQAAGKSNGEKKYIVGFKQTMSTMSAAKKKDVISEKGGKVQKQFKYVDAASATLNEKAVKELKKDPSVAYVEEDHVAHAYAQSVPYGVSQIKAPALHSQGYTGSNVKVAVIDSGIDSSHPDLKVAGGASMVPSETNPFQDNNSHGTHVAGTVAALNNSIGVLGVAPSASLYAVKVLGADGSGQYSWIINGIEWAIANNMDVINMSLGGPSGSAALKAAVDKAVASGVVVVAAAGNEGTSGSSSTVGYPGKYPSVIAVGAVDSSNQRASFSSVGPELDVMAPGVSIQSTLPGNKYGAYNGTSMASPHVAGAAALILSKHPNWTNTQVRSSLENTTTKLGDSFYYGKGLINVQAAAQ

Variants of: B1
Details: Bacillus amyloliquefaciens, pH 8, Thermal, DSC, Tris-HCl 5.0 mM, KCl 50 mM, reversible: yes, structure 1SUP, whole UniProt chain shown; for ddG of mutation (higher = less stable): 58.8 °C

MRGKKVWISLLFALALIFTMAFGSTSSAQAAGKSNGEKKYIVGFKQTMSTMSAAKKKDVISEKGGKVQKQFKYVDAASATLNEKAVKELKKDPSVAYVEEDHVAHAYAQSVPYGVSQIKAPALHSQGYTGSNVKVAVIDSGIDSSHPDLKVAGGASFVPSETNPFQDNNSHGTHVAGTVAALNNSIGVLGVAPSASLYAVKVLGADGSGQYSWIINGIEWAIANNMDVINMSLGGPSGSAALKAAVDKAVASGVVVVAAAGNEGTSGSSSTVGYPGKYPSVIAVGAVDSSNQRASFSSVGPELDVMAPGVSIQSTLPGNKYGAYNGTSMASPHVAGAAALILSKHPNWTNTQVRSSLENTTTKLGDSFYYGKGLINVQAAAQ [M157F]
ddG of mutation (higher = less stable): -0.48 kcal/mol
Tm: 60.3 °C
change of melting temperature, mutant - wild type (higher = more stable): 1.8 °C

MRGKKVWISLLFALALIFTMAFGSTSSAQAAGKSNGEKKYIVGFKQTMSTMSAAKKKDVISEKGGKVQKQFKYVDAASATLNEKAVKELKKDPSVAYVEEDHVAHAYAQSVPYGVSQIKAPALHSQGYTGSNVKVAVIDSGIDSSHPDLKVAGGASMVPSETNPFQDNNSHGTHVAGTVAALDNSIGVLGVAPSASLYAVKVLGADGSGQYSWIINGIEWAIANNMDVINMSLGGPSGSAALKAAVDKAVASGVVVVAAAGNEGTSGSSSTVGYPGKYPSVIAVGAVDSSNQRASFSSVGPELDVMAPGVSIQSTLPGNKYGAYNGTSMASPHVAGAAALILSKHPNWTNTQVRSSLENTTTKLGDSFYYGKGLINVQAAAQ [N183D]
ddG of mutation (higher = less stable): -0.45 kcal/mol
Tm: 60.2 °C
change of melting temperature, mutant - wild type (higher = more stable): 1.7 °C

MRGKKVWISLLFALALIFTMAFGSTSSAQAAGKSNGEKKYIVGFKQTMSTMSAAKKKDVISEKGGKVQKQFKYVDAASATLNEKAVKELKKDPSVAYVEEDHVAHAYAQSVPYGVSQIKAPALHSQGYTGSNVKVAVIDSGIDSSHPDLKVAGGASMVPSETNPFQDNNSHGTHVAGTVAALNNSIGVLGVAPSASLYAVKVLGADGSGQYSWIINGIEWAIANNMDVINMSLGGPSGSAALKAAVDKAVASGVVVVAAAGNEGTSGSSSTVGYPAKYPSVIAVGAVDSSNQRASFSSVGPELDVMAPGVSIQSTLPGNKYGAYNGTSMASPHVAGAAALILSKHPNWTNTQVRSSLENTTTKLGDSFYYGKGLINVQAAAQ [G276A]
ddG of mutation (higher = less stable): -0.3 kcal/mol
Tm: 59.6 °C
change of melting temperature, mutant - wild type (higher = more stable): 1.1 °C

MRGKKVWISLLFALALIFTMAFGSTSSAQAAGKSNGEKKYIVGFKQTMSTMSAAKKKDVISEKGGKVQKQFKYVDAASATLNEKAVKELKKDPSVAYVEEDHVAHAYAQSVPYGVSQIKAPALHSQGYTGSNVKVAVIDSGIDSSHPDLKVAGGASMVPSETNPFQDNNSHGTHVAGTVAALNNSIGVLGVAPSASLYAVKVLGADGSGQYSWIINGIEWAIANNMDVINMSLGGPSGSAALKAAVDKAVASGVVVVAAAGNEGTSGSSSTVGYPGKYPSVIAVGAVDSSNQRASFSSVGPELDVMAPGVSICSTLPGNKYGAYNGTSMASPHVAGAAALILSKHPNWTNTQVRSSLENTTTKLGDSFYYGKGLINVQAAAQ [Q313C]
ddG of mutation (higher = less stable): -1.25 kcal/mol
Tm: 63.2 °C
change of melting temperature, mutant - wild type (higher = more stable): 4.7 °C

MRGKKVWISLLFALALIFTMAFGSTSSAQAAGKSNGEKKYIVGFKQTMSTMSAAKKKDVISEKGGKVQKQFKYVDAASATLNEKAVKELKKDPSVAYVEEDHVAHAYAQSVPYGVSQIKAPALHSQGYTGSNVKVAVIDSGIDSSHPDLKVAGGASMVPSETNPFQDNNSHGTHVAGTVAALNNSIGVLGVAPSASLYAVKVLGADGSGQYSWIINGIEWAIANNMDVINMSLGGPSGSAALKAAVDKAVASGVVVVAAAGNEGTSGSSSTVGYPGKYPSVIAVGAVDSSNQRASFSSVGPELDVMAPGVSIQSTLPGNKYGAKNGTSMASPHVAGAAALILSKHPNWTNTQVRSSLENTTTKLGDSFYYGKGLINVQAAAQ [Y324K]
ddG of mutation (higher = less stable): -0.72 kcal/mol

MRGKKVWISLLFALALIFTMAFGSTSSAQAAGKSNGEKKYIVGFKQTMSTMSAAKKKDVISEKGGKVQKQFKYVDAASATLNEKAVKELKKDPSVAYVEEDHVAHAYAQSVPYGVSQIKAPALHSQGYTGSNVKVAVIDSGIDSSHPDLKVAGGASMVPSETNPFQDNNSHGTHVAGTVAALNNSIGVLGVAPSASLYAVKVLGADGSGQYSWIINGIEWAIANNMDVINMSLGGPSGSAALKAAVDKAVASGVVVVAAAGNEGTSGSSSTVGYPGKYPSVIAVGAVDSSNQRASFSSVGPELDVMAPGVSIQSTLPGNKYGAYSGTSMASPHVAGAAALILSKHPNWTNTQVRSSLENTTTKLGDSFYYGKGLINVQAAAQ [N325S]
ddG of mutation (higher = less stable): -1.07 kcal/mol
Tm: 62.5 °C
change of melting temperature, mutant - wild type (higher = more stable): 4 °C
